Laboratory results from article doi:10.1101/2025.06.13.659407, “Scavenger Receptor class F member 2 is an intracellular receptor for Hepatitis B virus” (bioRxiv, 2025).

Target: biotinylated preS1 peptide 79–108 carrying 89D and 90K (hepatitis B virus (residues numbered …, biotin (position not stated for this peptide)))
Test: pull-down; 2 µM biotinylated preS1 peptide on Dynabeads MyOne Streptavidin T1, incubated with 2 µg purified protein 1 h at 37°C, washed with PBS 0.01% Tween 20, Western blot (anti-HA or anti-human IgG1); the paper calls it immunoprecipitation (IP-Western)
Conditions: both partners purified

B1: sEGF4–6-hFc (soluble fusion protein comprising SCARF2's EGF4–6 domains, with an N-terminal HA tag and a C-terminal human IgG1 Fc tag) (Fc fusion)
chain: GSYPYDVPDYAGSSACYCSATSRCDPQTGACLCHAGWWGRSCNNQCACNSSPCEQQSGRCQCRERTFGARCDRYCQCFRGRCHPVDGTCACEPGYRGKYCR
B1 was tested, and the “fold efficiency of precipitation against preS1 79–108 QT and QS peptides” value was ~2 fold.
